Values quoted from earlier work in patent US20220089455A1, “METHOD FOR PRODUCING NANOPARTICLE HAVING METAL PARTICLE WHICH CONTAINS IRON OXIDE TO WHICH ONE OR MORE HYDROPHILIC LIGANDS ARE COORDINATION BONDED” (ASTELLAS PHARMA INC., priority 2018, published 2022).

Details: standard used for SEC comparison

B1: ovalbumin (protein, UniProt P01012 2-386, looked up)
Ovalbumin: GSIGAASMEFCFDVFKELKVHHANENIFYCPIAIMSALAMVYLGAKDSTRTQINKVVRFDKLPGFGDSIEAQCGTSVNVHSSLRDILNQITKPNDVYSFSLASRLYAEERYPILPEYLQCVKELYRGGLEPINFQTAADQARELINSWVESQTNGIIRNVLQPSSVDSQTAMVLVNAIVFKGLWEKAFKDEDTQAMPFRVTEQESKPVQMMYQIGLFRVASMASEKMKILELPFASGTMSMLVLLPDEVSGLEQLESIINFEKLTEWTSSNVMEERKIKVYLPRMKMEEKYNLTSVLMAMGITDVFSSSANLSGISSAESLKISQAVHAAHAEINEAGREVVGSAEAGVDAASVSEEFRADHPFLFCIKHIATNAVLFFGRCVSP
In the case of B1, the “particle diameter of the standard” value is given as 6.1 nm.
